Molecular target: T1, recombinant human lymphotoxin-α homotrimer (human LTα3) (human, UniProt P01374 35-205)
T1 construct: Coated on plates in the ELISAs; also called rhLTα; lymphotoxin-α3 trimer
T1 sequence (looked up): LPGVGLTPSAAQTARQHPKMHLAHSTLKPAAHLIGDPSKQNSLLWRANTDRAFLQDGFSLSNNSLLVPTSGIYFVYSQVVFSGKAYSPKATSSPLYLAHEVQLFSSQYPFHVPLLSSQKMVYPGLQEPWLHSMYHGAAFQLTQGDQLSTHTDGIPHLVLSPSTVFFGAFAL
Test: plate-based ELISA against LTα

B1: 3F12 version 13 (3F12.v5 with Y31A, CDR-L1) (antibody, IgG1, V domains shown)
VH: EVQLVESGGGLVQPGGSLRLSCAASGYTFSSYWIEWVRQAPGKGLEWVGEISPGSGSTNYNEEFKGRATFSADNSKNTAYLQMNSLRAEDTAVYYCADGYHGYWGQGTLVTVSS
VL: DIQMTQSPSSLSASVGDRVTITCKSSQSLLASTNQKNFLAWYQQKPGKAPKLLIYWASTRDSGVPSRFSGSGSGTDFTLTISSLQPEDFATYYCQQYYSYPRTFGQGTKVEIK
notes: Alanine-scan variant of 3F12.v5; human kappa / IgG1
B1 was tested, and the “relative binding (EC50 of the variant / EC50 of version 5)” value was 3.4 ratio.

B2: 3F12 version 9 (3F12.v5 with Y99A, CDR-H3) (antibody, IgG1, V domains shown)
VH: EVQLVESGGGLVQPGGSLRLSCAASGYTFSSYWIEWVRQAPGKGLEWVGEISPGSGSTNYNEEFKGRATFSADNSKNTAYLQMNSLRAEDTAVYYCADGAHGYWGQGTLVTVSS
VL: DIQMTQSPSSLSASVGDRVTITCKSSQSLLYSTNQKNFLAWYQQKPGKAPKLLIYWASTRDSGVPSRFSGSGSGTDFTLTISSLQPEDFATYYCQQYYSYPRTFGQGTKVEIK
notes: as for B1
With B2 the “relative binding (EC50 of the variant / EC50 of version 5)” value was 10 ratio.

B3: 3F12 version 12 (3F12.v5 with Y102A, CDR-H3) (antibody, IgG1, V domains shown)
VH: EVQLVESGGGLVQPGGSLRLSCAASGYTFSSYWIEWVRQAPGKGLEWVGEISPGSGSTNYNEEFKGRATFSADNSKNTAYLQMNSLRAEDTAVYYCADGYHGAWGQGTLVTVSS
VL: DIQMTQSPSSLSASVGDRVTITCKSSQSLLYSTNQKNFLAWYQQKPGKAPKLLIYWASTRDSGVPSRFSGSGSGTDFTLTISSLQPEDFATYYCQQYYSYPRTFGQGTKVEIK
notes: Alanine-scan variant of 3F12.v5; human kappa / IgG1; also called 3F12 clone 12
With B3 the “relative binding (EC50 of the variant / EC50 of version 5)” value was 0.81 ratio.

B4: 3F12 version 14 of Table 2 (3F12.v5 with T33A, CDR-L1) (antibody, IgG1, V domains shown)
VH: EVQLVESGGGLVQPGGSLRLSCAASGYTFSSYWIEWVRQAPGKGLEWVGEISPGSGSTNYNEEFKGRATFSADNSKNTAYLQMNSLRAEDTAVYYCADGYHGYWGQGTLVTVSS
VL: DIQMTQSPSSLSASVGDRVTITCKSSQSLLYSANQKNFLAWYQQKPGKAPKLLIYWASTRDSGVPSRFSGSGSGTDFTLTISSLQPEDFATYYCQQYYSYPRTFGQGTKVEIK
notes: Alanine-scan variant of 3F12.v5; human kappa / IgG1; also called 3F12 clone 14
B4 was tested, and the “relative binding (EC50 of the variant / EC50 of version 5)” value was 0.72 ratio.

B5: 3F12 version 15 (3F12.v5 with N34A, CDR-L1) (antibody, IgG1, V domains shown)
VH: EVQLVESGGGLVQPGGSLRLSCAASGYTFSSYWIEWVRQAPGKGLEWVGEISPGSGSTNYNEEFKGRATFSADNSKNTAYLQMNSLRAEDTAVYYCADGYHGYWGQGTLVTVSS
VL: DIQMTQSPSSLSASVGDRVTITCKSSQSLLYSTAQKNFLAWYQQKPGKAPKLLIYWASTRDSGVPSRFSGSGSGTDFTLTISSLQPEDFATYYCQQYYSYPRTFGQGTKVEIK
notes: Alanine-scan variant of 3F12.v5; human kappa / IgG1; also called 3F12 clone 15
B5 was tested, and the “relative binding (EC50 of the variant / EC50 of version 5)” value was 0.49 ratio.

B6: 3F12 version 16 (3F12.v5 with K36A, CDR-L1) (antibody, IgG1, V domains shown)
VH: EVQLVESGGGLVQPGGSLRLSCAASGYTFSSYWIEWVRQAPGKGLEWVGEISPGSGSTNYNEEFKGRATFSADNSKNTAYLQMNSLRAEDTAVYYCADGYHGYWGQGTLVTVSS
VL: DIQMTQSPSSLSASVGDRVTITCKSSQSLLYSTNQANFLAWYQQKPGKAPKLLIYWASTRDSGVPSRFSGSGSGTDFTLTISSLQPEDFATYYCQQYYSYPRTFGQGTKVEIK
notes: as for B1
With B6 the “relative binding (EC50 of the variant / EC50 of version 5)” value was 3.7 ratio.

B7: 3F12 version 17 (3F12.v5 with F38A, CDR-L1) (antibody, IgG1, V domains shown)
VH: EVQLVESGGGLVQPGGSLRLSCAASGYTFSSYWIEWVRQAPGKGLEWVGEISPGSGSTNYNEEFKGRATFSADNSKNTAYLQMNSLRAEDTAVYYCADGYHGYWGQGTLVTVSS
VL: DIQMTQSPSSLSASVGDRVTITCKSSQSLLYSTNQKNALAWYQQKPGKAPKLLIYWASTRDSGVPSRFSGSGSGTDFTLTISSLQPEDFATYYCQQYYSYPRTFGQGTKVEIK
notes: Alanine-scan variant of 3F12.v5; human kappa / IgG1; also called 3F12 clone 17
With B7 the “relative binding (EC50 of the variant / EC50 of version 5)” value was 0.32 ratio.

B8: 3F12 version 18 (3F12.v5 with Q89A, CDR-L3) (antibody, IgG1, V domains shown)
VH: EVQLVESGGGLVQPGGSLRLSCAASGYTFSSYWIEWVRQAPGKGLEWVGEISPGSGSTNYNEEFKGRATFSADNSKNTAYLQMNSLRAEDTAVYYCADGYHGYWGQGTLVTVSS
VL: DIQMTQSPSSLSASVGDRVTITCKSSQSLLYSTNQKNFLAWYQQKPGKAPKLLIYWASTRDSGVPSRFSGSGSGTDFTLTISSLQPEDFATYYCAQYYSYPRTFGQGTKVEIK
notes: as for B1
With B8 the “relative binding (EC50 of the variant / EC50 of version 5)” value was 4.2 ratio.

B9: 3F12 version 19 (3F12.v5 with Y91A, CDR-L3) (antibody, IgG1, V domains shown)
VH: EVQLVESGGGLVQPGGSLRLSCAASGYTFSSYWIEWVRQAPGKGLEWVGEISPGSGSTNYNEEFKGRATFSADNSKNTAYLQMNSLRAEDTAVYYCADGYHGYWGQGTLVTVSS
VL: DIQMTQSPSSLSASVGDRVTITCKSSQSLLYSTNQKNFLAWYQQKPGKAPKLLIYWASTRDSGVPSRFSGSGSGTDFTLTISSLQPEDFATYYCQQAYSYPRTFGQGTKVEIK
notes: as for B1
B9 was tested, and the “relative binding (EC50 of the variant / EC50 of version 5)” value was 2.3 ratio.

B10: 3F12 version 20 (3F12.v5 with Y92A, CDR-L3) (antibody, IgG1, V domains shown)
VH: EVQLVESGGGLVQPGGSLRLSCAASGYTFSSYWIEWVRQAPGKGLEWVGEISPGSGSTNYNEEFKGRATFSADNSKNTAYLQMNSLRAEDTAVYYCADGYHGYWGQGTLVTVSS
VL: DIQMTQSPSSLSASVGDRVTITCKSSQSLLYSTNQKNFLAWYQQKPGKAPKLLIYWASTRDSGVPSRFSGSGSGTDFTLTISSLQPEDFATYYCQQYASYPRTFGQGTKVEIK
notes: Alanine-scan variant of 3F12.v5; human kappa / IgG1; also called 3F12 clone 20
For B10, the “relative binding (EC50 of the variant / EC50 of version 5)” value was 0.71 ratio.

B11: 3F12 version 21 (3F12.v5 with S93A, CDR-L3) (antibody, IgG1, V domains shown)
VH: EVQLVESGGGLVQPGGSLRLSCAASGYTFSSYWIEWVRQAPGKGLEWVGEISPGSGSTNYNEEFKGRATFSADNSKNTAYLQMNSLRAEDTAVYYCADGYHGYWGQGTLVTVSS
VL: DIQMTQSPSSLSASVGDRVTITCKSSQSLLYSTNQKNFLAWYQQKPGKAPKLLIYWASTRDSGVPSRFSGSGSGTDFTLTISSLQPEDFATYYCQQYYAYPRTFGQGTKVEIK
notes: Alanine-scan variant of 3F12.v5; human kappa / IgG1; also called 3F12 clone 21
B11 was tested, and the “relative binding (EC50 of the variant / EC50 of version 5)” value was 0.82 ratio.

B12: 3F12 version 22 (3F12.v5 with Y94A, CDR-L3) (antibody, IgG1, V domains shown)
VH: EVQLVESGGGLVQPGGSLRLSCAASGYTFSSYWIEWVRQAPGKGLEWVGEISPGSGSTNYNEEFKGRATFSADNSKNTAYLQMNSLRAEDTAVYYCADGYHGYWGQGTLVTVSS
VL: DIQMTQSPSSLSASVGDRVTITCKSSQSLLYSTNQKNFLAWYQQKPGKAPKLLIYWASTRDSGVPSRFSGSGSGTDFTLTISSLQPEDFATYYCQQYYSAPRTFGQGTKVEIK
notes: as for B1
B12 was tested, and the “relative binding (EC50 of the variant / EC50 of version 5)” value was 14.3 ratio.

B13: 3F12 version 23 (3F12.v5 with R96A, CDR-L3) (antibody, IgG1, V domains shown)
VH: EVQLVESGGGLVQPGGSLRLSCAASGYTFSSYWIEWVRQAPGKGLEWVGEISPGSGSTNYNEEFKGRATFSADNSKNTAYLQMNSLRAEDTAVYYCADGYHGYWGQGTLVTVSS
VL: DIQMTQSPSSLSASVGDRVTITCKSSQSLLYSTNQKNFLAWYQQKPGKAPKLLIYWASTRDSGVPSRFSGSGSGTDFTLTISSLQPEDFATYYCQQYYSYPATFGQGTKVEIK
notes: as for B1
For B13, the “relative binding (EC50 of the variant / EC50 of version 5)” value was 18.2 ratio.

B14: 3F12 version 24 (3F12.v5 with G53A, CDR-H2) (antibody, IgG1, V domains shown)
VH: EVQLVESGGGLVQPGGSLRLSCAASGYTFSSYWIEWVRQAPGKGLEWVGEISPASGSTNYNEEFKGRATFSADNSKNTAYLQMNSLRAEDTAVYYCADGYHGYWGQGTLVTVSS
VL: DIQMTQSPSSLSASVGDRVTITCKSSQSLLYSTNQKNFLAWYQQKPGKAPKLLIYWASTRDSGVPSRFSGSGSGTDFTLTISSLQPEDFATYYCQQYYSYPRTFGQGTKVEIK
notes: as for B1
In the case of B14, the “relative binding (EC50 of the variant / EC50 of version 5)” value is reported as 34.1 ratio.

B15: 3F12 version 25 (3F12.v5 with G55A, CDR-H2) (antibody, IgG1, V domains shown)
VH: EVQLVESGGGLVQPGGSLRLSCAASGYTFSSYWIEWVRQAPGKGLEWVGEISPGSASTNYNEEFKGRATFSADNSKNTAYLQMNSLRAEDTAVYYCADGYHGYWGQGTLVTVSS
VL: DIQMTQSPSSLSASVGDRVTITCKSSQSLLYSTNQKNFLAWYQQKPGKAPKLLIYWASTRDSGVPSRFSGSGSGTDFTLTISSLQPEDFATYYCQQYYSYPRTFGQGTKVEIK
notes: as for B1
B15 was tested, and the “relative binding (EC50 of the variant / EC50 of version 5)” value was 1.2 ratio.

Reference: patent publication US20130011412A1 (Genentech, published 2013)
